According to PMC11109203 (Nature Communications, 2024):

B4: Clr3 (untagged) (enzyme, S. pombe, UniProt P56523 1-687, looked up)
chain: MLASNSDGASTSVKPSDDAVNTVTPWSILLTNNKPMSGSENTLNNESHEMSQILKKSGLCYDPRMRFHATLSEVDDHPEDPRRVLRVFEAIKKAGYVSNVPSPSDVFLRIPAREATLEELLQVHSQEMYDRVTNTEKMSHEDLANLEKISDSLYYNNESAFCARLACGSAIETCTAVVTGQVKNAFAVVRPPGHHAEPHKPGGFCLFNNVSVTARSMLQRFPDKIKRVLIVDWDIHHGNGTQMAFYDDPNVLYVSLHRYENGRFYPGTNYGCAENCGEGPGLGRTVNIPWSCAGMGDGDYIYAFQRVVMPVAYEFDPDLVIVSCGFDAAAGDHIGQFLLTPAAYAHMTQMLMGLADGKVFISLEGGYNLDSISTSALAVAQSLLGIPPGRLHTTYACPQAVATINHVTKIQSQYWRCMRPKHFDANPKDAHVDRLHDVIRTYQAKKLFEDWKITNMPILRDSVSNVFNNQVLCSSNFFQKDNLLVIVHESPRVLGNGTSETNVLNLNDSLLVDPVSLYVEWAMQQDWGLIDINIPEVVTDGENAPVDILSEVKELCLYVWDNYVELSISKNIFFIGGGKAVHGLVNLASSRNVSDRVKCMVNFLGTEPLVGLKTASEEDLPTWYYRHSLVFVSSSNECWKKAKRAKRRYGRLMQSEHTETSDMMEQHYRAVTQYLLHLLQKARPTSQ
notes: Clr3, histone deacetylase, S. pombe; source: E. coli Rosetta, purified (Ni-NTA, Ulp1 digestion, Superdex); not shown: 6*His-Sumo, N-terminal, cleaved

Legend:
Conditions in all cases: both partners purified
Clr3 (untagged) = target: B4; experiment: pull-down; GST-Sad1_(1-169) on glutathione beads with Sumo-Sir2 or untagged Clr3, in the absence of H2AB; same buffer as the histone pull-downs
[1] = target: T1, S. pombe H2AB fusion protein (H2B_(32-126)-H2A_(15-108)) (S. pombe, UniProt P04913 32-126; P04909 15-108); experiment: ITC; MicroCal ITC200, 20 °C; 25 mM Tris-HCl pH 8.0, 400 mM NaCl, 2 mM DTT; Sad1 (500 μM) titrated into H2AB (50 μM)
T1 construct: histone H2A, S. pombe, residues 15-108; No linker between the two parts is told; Modified pCDF-Duet vector, His tag followed by a 3C site; also called single-chain fusion of H2A and H2B; H2A-H2B fusion protein; source: E. coli Rosetta, purified (3C digestion, Superdex); not shown: 6*His, N-terminal, cleaved

FITC labeled Clr3 = target: T2, FITC labeled Clr3 (S. pombe, UniProt P56523 1-687, FITC label); experiment: MST; Monolith NT.115; 25 mM HEPES pH 7.5, 150 mM NaCl, 2 mM DTT; 20 nM FITC labeled Clr3; ligands (500 μM Sad1_(1-169) or 250 μM Sad1_(1-169)-H2AB complex) diluted by 12 gradients; medium MST power, 80% LED
T2 construct: Clr3, histone deacetylase, S. pombe; source: E. coli Rosetta, purified, labeled with the EZLabel Protein FITC Labeling Kit
T2 sequence (looked up): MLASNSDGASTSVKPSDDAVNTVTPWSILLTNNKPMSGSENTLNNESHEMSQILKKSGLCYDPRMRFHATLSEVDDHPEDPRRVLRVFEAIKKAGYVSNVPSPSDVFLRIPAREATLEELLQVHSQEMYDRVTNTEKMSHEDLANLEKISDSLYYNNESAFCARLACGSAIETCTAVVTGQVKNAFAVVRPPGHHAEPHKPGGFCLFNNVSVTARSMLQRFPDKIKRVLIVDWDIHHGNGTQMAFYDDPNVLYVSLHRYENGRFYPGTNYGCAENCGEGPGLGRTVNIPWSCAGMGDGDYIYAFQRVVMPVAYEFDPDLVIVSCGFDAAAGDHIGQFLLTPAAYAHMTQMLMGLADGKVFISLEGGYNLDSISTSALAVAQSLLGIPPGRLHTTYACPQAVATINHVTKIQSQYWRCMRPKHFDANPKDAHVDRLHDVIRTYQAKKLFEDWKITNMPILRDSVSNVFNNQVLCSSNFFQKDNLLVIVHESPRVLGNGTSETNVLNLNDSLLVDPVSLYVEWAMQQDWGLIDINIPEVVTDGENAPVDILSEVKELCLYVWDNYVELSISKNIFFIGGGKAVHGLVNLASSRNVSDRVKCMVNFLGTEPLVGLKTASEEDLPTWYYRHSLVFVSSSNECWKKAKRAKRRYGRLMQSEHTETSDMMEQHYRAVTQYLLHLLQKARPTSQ

[2] = target: T3, GST-Sad1_(1-169) with H2AB (Sad1-H2AB complex of the pull-downs) (S. pombe, UniProt Q09825 1-169; P04913 32-126; P04909 15-108); experiment: pull-down; GST-Sad1_(1-169) on glutathione beads with silencing factors in the presence of H2AB; same buffer as the histone pull-downs
T3 construct: histone H2A, S. pombe, residues 15-108; m1 with m5; source: E. coli Rosetta, purified proteins mixed; not shown: GST, N-terminal, kept; 6*His, N-terminal, cleaved
T3 sequence (P04913 other isoform, or with tags, fused parts or gaps): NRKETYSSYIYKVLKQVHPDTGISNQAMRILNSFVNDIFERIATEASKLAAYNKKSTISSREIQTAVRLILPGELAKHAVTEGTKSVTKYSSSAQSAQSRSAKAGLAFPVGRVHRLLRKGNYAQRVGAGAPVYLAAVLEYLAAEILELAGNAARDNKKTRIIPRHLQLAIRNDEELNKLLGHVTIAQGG

T1 sequence (P04913 other isoform, or with tags, fused parts or gaps): as above

B1: GST-Sad1_(1-169) (domain or fragment, S. pombe, UniProt Q09825 1-169, looked up)
chain: MFTNTPVGGKRERQNGAHPAWSTLGANSAQIHQNTADLASKMHKLRYTKIRSPPTRVSIESITPKQRFPAPNFEQAYHSNIRYEQEESDNEEFENVVKNGHEASTNVFYESDGDDEEFVNEEYENSIDEESDDEGYSLNEDTTATNASFRYPMNQRSTRKSQFYSSKFK
notes: pGEX-6P-1 vector; source: E. coli Rosetta, purified (glutathione Sepharose 4B, eluted with reduced glutathione, Superdex); not shown: GST, N-terminal, kept
Clr3 (untagged)
  binding result: binds

B2: Sad1_(1-169) (domain or fragment, S. pombe, UniProt Q09825 1-169, looked up)
chain: MFTNTPVGGKRERQNGAHPAWSTLGANSAQIHQNTADLASKMHKLRYTKIRSPPTRVSIESITPKQRFPAPNFEQAYHSNIRYEQEESDNEEFENVVKNGHEASTNVFYESDGDDEEFVNEEYENSIDEESDDEGYSLNEDTTATNASFRYPMNQRSTRKSQFYSSKFK
notes: Cleavage is told in general for proteins not needed with their tag; used in ITC, SEC and MST; also called Sad1NTD; source: E. coli Rosetta, purified (glutathione Sepharose 4B, 3C digestion on beads, Superdex); not shown: GST, N-terminal, cleaved
[1]
  Kd: 9.5 µM
FITC labeled Clr3
  binding result: binds

B3: Sumo-Sir2 fusion protein (enzyme, S. pombe, UniProt O94640 1-475, looked up)
chain: MASNPLDNNMPTTPVEEKIPVASYSPSSSGSSSGASLLVDIMCGSKETEDEEVDSDEWDKPETENISDLDERSEMVRYLRASGYAKFLEKYLIEEELPVRSILKKLGINLPSALEEFEDIDLLPLLKEVLKREVARRIKLPHFNTFEDVVNLLKKAKNVVVLVGAGISTSLGILDFRSDNGFYARLARHGLSEPSEMFDIHTFRENPEIFYTFARDLLPETNHYSPSHAFIRLLEKKNKLSTLFTQNIDNLEKKTGLSDNKIIQCHGSFATATCIKCKHKVDGSELYEDIRNQRVSYCNECGKPPLKLRRVGQNKKEKHYFSDGDSESSEDDLAQPGIMKPDITFFGEALPDSFFNKVGSGELEETDLLICIGTSLKVAPVSELISVIPPTTPQIYISRTPVRHTQFDVNFLSPYCDWVIVEICKRAGWLNELQALCDLPECHSGSKTRAFETDLDIKFEEPSTYHITSTTNGSC
notes: Sir2, histone deacetylase, S. pombe; The legend says that some untagged Sir2 from self-proteolysis was present; source: E. coli Rosetta, purified (Ni-NTA, eluted with imidazole, Superdex); not shown: 6*His-Sumo, N-terminal, kept
[2]
  binding result: binds

## B4
[2]
  binding result: binds

B5: Sad1_(60-169) (domain or fragment, S. pombe, UniProt Q09825 60-169, looked up)
chain: ESITPKQRFPAPNFEQAYHSNIRYEQEESDNEEFENVVKNGHEASTNVFYESDGDDEEFVNEEYENSIDEESDDEGYSLNEDTTATNASFRYPMNQRSTRKSQFYSSKFK
notes: source: E. coli Rosetta, purified; not shown: GST, N-terminal, cleaved
[1]
  binding result: binds

B6: Sad1_(60-169) with charge-reverse mutations of D114 and E117 (domain or fragment)
chain: ESITPKQRFPAPNFEQAYHSNIRYEQEESDNEEFENVVKNGHEASTNVFYESDGRDERFVNEEYENSIDEESDDEGYSLNEDTTATNASFRYPMNQRSTRKSQFYSSKFK
[1]
  fold decrease of binding affinity against wild-type Sad1_(60-169): 5.6 fold

B7: Sad1_(60-169) F118A (domain or fragment, S. pombe, UniProt Q09825 60-169, looked up)
chain: ESITPKQRFPAPNFEQAYHSNIRYEQEESDNEEFENVVKNGHEASTNVFYESDGDDEEAVNEEYENSIDEESDDEGYSLNEDTTATNASFRYPMNQRSTRKSQFYSSKFK
notes: also called Sad1 F118A; source: E. coli Rosetta, purified; not shown: GST, N-terminal, cleaved
[1]
  binding result: binds
